Laboratory results published in IntAct's records for PubMed 29039417.

B1: BBSome complex member BBS2 (Homo sapiens), Q9BXC9 (parent)
chain: MLLPVFTLKLRHKISPRMVAIGRYDGTHPCLAAATQTGKVFIHNPHTRNQHVSASRVFQSPLESDVSLLSINQAVSCLTAGVLNPELGYDALLVGTQTNLLAYDVYNNSDLFYREVADGANAIVLGTLGDISSPLAIIGGNCALQGFNHEGSDLFWTVTGDNVNSLALCDFDGDGKKELLVGSEDFDIRVFKEDEIVAEMTETEIVTSLCPMYGSRFGYALSNGTVGVYDKTSRYWRIKSKNHAMSIHAFDLNSDGVNELITGWSNGKVDARSDRTGEVIFKDNFSSAIAGVVEGDYRMDGHIQLICCSVDGEIRGYLPGTAEMRGNLMDTSAEQDLIRELSQKKQNLLLELRNYEENAKAELASPLNEADGHRGIIPANTRLHTTLSVSLGNETQTAHTELRISTSNDTIIRAVLIFAEGIFTGESHVVHPSIHNLSSSICIPIVPPKDVPVDLHLKAFVGYRSSTQFHVFESTRQLPRFSMYALTSLDPASEPISYVNFTIAERAQRVVVWLGQNFLLPEDTHIQNAPFQVCFTSLRNGGHLHIKIKLSGEITINTDDIDLAGDIIQSMASFFAIEDLQVEADFPVYFEELRKVLVKVDEYHSVHQKLSADMADHSNLIRSLLVGAEDARLMRDMKTMKSRYMELYDLNRDLLNGYKIRCNNHTELLGNLKAVNQAIQRAGRLRVGKPKNQVITACRDAIRSNNINTLFKIMRVGTASS
partner: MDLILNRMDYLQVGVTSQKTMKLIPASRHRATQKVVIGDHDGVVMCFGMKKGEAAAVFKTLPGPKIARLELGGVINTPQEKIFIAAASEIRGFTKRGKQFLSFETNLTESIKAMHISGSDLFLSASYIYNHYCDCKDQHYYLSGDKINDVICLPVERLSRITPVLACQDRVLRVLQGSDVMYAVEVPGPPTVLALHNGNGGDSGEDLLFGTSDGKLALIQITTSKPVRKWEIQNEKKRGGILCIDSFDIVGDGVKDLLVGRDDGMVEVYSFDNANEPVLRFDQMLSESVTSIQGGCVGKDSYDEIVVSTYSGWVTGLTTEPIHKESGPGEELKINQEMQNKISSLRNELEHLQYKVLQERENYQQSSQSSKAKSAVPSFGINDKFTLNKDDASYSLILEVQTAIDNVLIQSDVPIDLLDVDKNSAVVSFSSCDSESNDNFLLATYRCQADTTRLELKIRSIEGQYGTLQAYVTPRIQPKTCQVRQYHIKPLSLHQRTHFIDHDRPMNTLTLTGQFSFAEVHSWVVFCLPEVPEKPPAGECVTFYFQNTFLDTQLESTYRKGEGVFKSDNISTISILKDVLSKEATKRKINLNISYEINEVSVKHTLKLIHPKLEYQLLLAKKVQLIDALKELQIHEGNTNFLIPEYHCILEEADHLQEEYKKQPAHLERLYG

Variants of: B1
Conditions: with BBS7, Q8IWZ6-2

Variant	effect of a mutation on the interaction
V687K	with no effect
V687E	with no effect
V687A	with no effect
N664A	with no effect
N664K	with no effect
N664E	with no effect
R686K	with no effect
R686A	disrupting interaction strength
R686E	disrupting interaction strength
N671E	disrupting interaction strength
N671A	with no effect
N671K	with no effect
Q680K	with no effect
Q680E	with no effect
Q680A	with no effect
H665K	with no effect
H665E	with no effect
H665A	with no effect
T666E	with no effect
T666K	with no effect
T666A	with no effect
C662E	with no effect

Variant	effect of a mutation on the interaction
C662K	with no effect
C662A	with no effect
L669K	with no effect
L669A	with no effect
L669E	with no effect
E667K	with no effect
E667A	with no effect
V675K	with no effect
V675A	with no effect
V675E	with no effect
L668A	with no effect
L668E	with no effect
L668K	with no effect
N676A	with no effect
N676E	with no effect
N676K	with no effect
N676T	disrupting interaction strength
A682K	with no effect
A682E	with no effect
R684E	with no effect
R684K	with no effect
R684A	with no effect

Variant	effect of a mutation on the interaction
R681K	with no effect
R681E	with no effect
R681A	with no effect
A674E	with no effect
A674K	with no effect
G688A	disrupting interaction strength
G688E	disrupting interaction strength
A678E	with no effect
A678K	with no effect
G670K	with no effect
G670C	disrupting interaction strength
G670A	with no effect
G670E	with no effect
Y658K	with no effect
L685A	disrupting interaction strength
L685E	disrupting interaction strength
L685K	with no effect
I660A	with no effect
I660E	with no effect
I660K	with no effect
K673E	with no effect
K673A	with no effect

Variant	effect of a mutation on the interaction
R661E	with no effect
R661A	with no effect
R661K	with no effect
G683K	with no effect
G683A	with no effect
G683E	with no effect
K659A	with no effect
K659E	with no effect
Q677A	with no effect
Q677E	with no effect
Q677K	with no effect
N663A	with no effect
N663K	with no effect
N663E	with no effect
L672E	with no effect
L672A	with no effect
L672K	with no effect
I679A	disrupting interaction strength
I679L	disrupting interaction strength
I679E	disrupting interaction strength
I679K	disrupting interaction strength
